The source of these data is article PMC7395460, “Structural mechanism of helicase loading onto replication origin DNA by ORC-Cdc6” (Proceedings of the National Academy of Sciences of the …, 2020).

To fix the notation:
B1: Orc1 (natural protein, S. cerevisiae)
chain: MAKTLKDLQGWEIITTDEQGNIIDGGQKRLRRRGAKTEHYLKRSSDGIKLGRGDSVVMHNEAAGTYSVYMIQELRLNTLNNVVELWALTYLRWFEVNPLAHYRQFNPDANILNRPLNYYNKLFSETANKNELYLTAELAELQLFNFIRVANVMDGSKWEVLKGNVDPERDFTVRYICEPTGEKFVDINIEDVKAYIKKVEPREAQEYLKDLTLPSKKKEIKRGPQKKDKATQTAQISDAETRATDITDNEDGNEDESSDYESPSDIDVSEDMDSGEISADELEEEEDEEEDEDEEEKEARHTNSPRKRGRKIKLGKDDIDASVQPPPKKRGRKPKDPSKPRQMLLISSCRANNTPVIRKFTKKNVARAKKKYTPFSKRFKSIAAIPDLTSLPEFYGNSSELMASRFENKLKTTQKHQIVETIFSKVKKQLNSSYVKEEILKSANFQDYLPARENEFASIYLSAYSAIESDSATTIYVAGTPGVGKTLTVREVVKELLSSSAQREIPDFLYVEINGLKMVKPTDCYETLWNKVSGERLTWAASMESLEFYFKRVPKNKKKTIVVLLDELDAMVTKSQDIMYNFFNWTTYENAKLIVIAVANTMDLPERQLGNKITSRIGFTRIMFTGYTHEELKNIIDLRLKGLNDSFFYVDTKTGNAILIDAAGNDTTVKQTLPEDVRKVRLRMSADAIEIASRKVASVSGDARRALKVCKRAAEIAEKHYMAKHGYGYDGKTVIEDENEEQIYDDEDKDLIESNKAKDDNDDDDDNDGVQTVHITHVMKALNETLNSHVITFMTRLSFTAKLFIYALLNLMKKNGSQEQELGDIVDEIKLLIEVNGSNKFVMEIAKTLFQQGSDNISEQLRIISWDFVLNQLLDAGILFKQTMKNDRICCVKLNISVEEAKRAMNEDETLRNL
notes: Orc1, subunit of the S. cerevisiae origin recognition complex; Stood in the assay as a subunit of ORC

What all share (test): cryo-EM structure; pre-insertion OCCM, 8.1 Å; same loading reaction (purified ORC, Cdc6, Cdt1, mutant Mcm2-7, ARS1 DNA, ATPγS); models docked as rigid bodies
What all share (conditions): both partners purified

One assay addresses T1, Mcm4 (S. cerevisiae, UniProt P30665 1-933).
T1 construct: Mcm4 of S. cerevisiae; Stood in the assay as a subunit of the mutant Mcm2-7
T1 sequence: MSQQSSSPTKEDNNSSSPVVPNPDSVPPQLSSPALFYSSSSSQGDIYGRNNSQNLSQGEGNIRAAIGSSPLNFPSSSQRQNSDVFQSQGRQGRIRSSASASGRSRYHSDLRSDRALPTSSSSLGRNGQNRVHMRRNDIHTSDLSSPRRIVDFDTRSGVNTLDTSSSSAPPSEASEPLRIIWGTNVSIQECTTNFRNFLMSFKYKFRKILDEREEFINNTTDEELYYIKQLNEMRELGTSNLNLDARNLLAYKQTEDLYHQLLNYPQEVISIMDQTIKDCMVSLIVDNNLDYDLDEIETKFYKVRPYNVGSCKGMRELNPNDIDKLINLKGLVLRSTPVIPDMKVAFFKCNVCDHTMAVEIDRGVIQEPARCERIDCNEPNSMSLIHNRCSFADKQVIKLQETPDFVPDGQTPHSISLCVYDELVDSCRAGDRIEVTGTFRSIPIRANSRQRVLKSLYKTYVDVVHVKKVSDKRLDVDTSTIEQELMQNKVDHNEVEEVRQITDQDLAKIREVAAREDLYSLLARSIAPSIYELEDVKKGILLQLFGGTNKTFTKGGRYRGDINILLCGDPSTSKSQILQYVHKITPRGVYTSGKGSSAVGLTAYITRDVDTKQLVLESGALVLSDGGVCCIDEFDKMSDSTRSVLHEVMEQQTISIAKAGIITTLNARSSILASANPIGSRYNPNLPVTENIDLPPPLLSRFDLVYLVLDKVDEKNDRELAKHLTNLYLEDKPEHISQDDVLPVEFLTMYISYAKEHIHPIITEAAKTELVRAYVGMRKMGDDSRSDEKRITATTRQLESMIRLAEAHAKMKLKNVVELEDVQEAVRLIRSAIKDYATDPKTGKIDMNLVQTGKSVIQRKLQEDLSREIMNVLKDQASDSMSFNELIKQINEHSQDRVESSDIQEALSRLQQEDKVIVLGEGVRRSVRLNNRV

The target of the assay “Orc1” is B1.
The target in the next assay is T2, Mcm3 (S. cerevisiae, UniProt P24279 1-971).
T2 construct: Mcm3 of S. cerevisiae; Stood in the assay as a subunit of the mutant Mcm2-7; in the semi-attached OCCM only its WHD is resolved
T2 sequence (P24279 whole entry): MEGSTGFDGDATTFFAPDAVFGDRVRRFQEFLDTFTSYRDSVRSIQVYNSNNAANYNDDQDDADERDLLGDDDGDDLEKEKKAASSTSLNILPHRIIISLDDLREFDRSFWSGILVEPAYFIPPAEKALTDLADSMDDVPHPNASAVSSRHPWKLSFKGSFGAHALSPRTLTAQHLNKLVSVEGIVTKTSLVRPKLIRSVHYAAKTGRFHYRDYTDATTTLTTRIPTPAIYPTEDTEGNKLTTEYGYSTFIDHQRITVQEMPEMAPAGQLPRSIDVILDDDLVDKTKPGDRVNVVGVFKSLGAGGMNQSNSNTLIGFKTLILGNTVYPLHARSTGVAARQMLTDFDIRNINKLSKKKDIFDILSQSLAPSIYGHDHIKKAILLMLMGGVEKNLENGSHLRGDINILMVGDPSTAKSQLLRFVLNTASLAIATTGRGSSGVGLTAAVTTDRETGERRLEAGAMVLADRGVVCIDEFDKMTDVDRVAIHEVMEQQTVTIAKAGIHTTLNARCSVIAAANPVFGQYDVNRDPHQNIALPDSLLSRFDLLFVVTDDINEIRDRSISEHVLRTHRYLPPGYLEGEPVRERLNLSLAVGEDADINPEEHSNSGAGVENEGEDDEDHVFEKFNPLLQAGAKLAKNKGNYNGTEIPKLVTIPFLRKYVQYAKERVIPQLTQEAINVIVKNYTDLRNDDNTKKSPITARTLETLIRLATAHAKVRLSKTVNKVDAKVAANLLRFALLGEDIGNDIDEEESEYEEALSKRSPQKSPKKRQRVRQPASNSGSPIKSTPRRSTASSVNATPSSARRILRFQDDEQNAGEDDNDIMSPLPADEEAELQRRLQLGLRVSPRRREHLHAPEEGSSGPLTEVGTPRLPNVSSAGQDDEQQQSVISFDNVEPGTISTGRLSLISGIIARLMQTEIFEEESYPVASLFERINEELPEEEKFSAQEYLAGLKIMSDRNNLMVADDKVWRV

Consider B1, for which the binding result in the assay with Mcm4 is “binds”.

B2: Mcm7 (natural protein, S. cerevisiae, UniProt P38132 1-845, looked up)
chain: MSAALPSIQLPVDYNNLFNEITDFLVTFKQDTLSSDATRNENEDENLDAENIEQHLLEKGPKYMAMLQKVANRELNSVIIDLDDILQYQNEKFLQGTQADDLVSAIQQNANHFTELFCRAIDNNMPLPTKEIDYKDDVLDVILNQRRLRNERMLSDRTNEIRSENLMDTTMDPPSSMNDALREVVEDETELFPPNLTRRYFLYFKPLSQNCARRYRKKAISSKPLSVRQIKGDFLGQLITVRGIITRVSDVKPAVEVIAYTCDQCGYEVFQEVNSRTFTPLSECTSEECSQNQTKGQLFMSTRASKFSAFQECKIQELSQQVPVGHIPRSLNIHVNGTLVRSLSPGDIVDVTGIFLPAPYTGFKALKAGLLTETYLEAQFVRQHKKKFASFSLTSDVEERVMELITSGDVYNRLAKSIAPEIYGNLDVKKALLLLLVGGVDKRVGDGMKIRGDINVCLMGDPGVAKSQLLKAICKISPRGVYTTGKGSSGVGLTAAVMKDPVTDEMILEGGALVLADNGICCIDEFDKMDESDRTAIHEVMEQQTISISKAGINTTLNARTSILAAANPLYGRYNPRLSPLDNINLPAALLSRFDILFLMLDIPSRDDDEKLAEHVTYVHMHNKQPDLDFTPVEPSKMREYIAYAKTKRPVMSEAVNDYVVQAYIRLRQDSKREMDSKFSFGQATPRTLLGIIRLSQALAKLRLADMVDIDDVEEALRLVRVSKESLYQETNKSKEDESPTTKIFTIIKKMLQETGKNTLSYENIVKTVRLRGFTMLQLSNCIQEYSYLNVWHLINEGNTLKFVDDGTMDTDQEDSLVSTPKLAPQTTASANVSAQDSDIDLQDA
notes: Mcm7 of S. cerevisiae; Stood in the assay as a subunit of the mutant Mcm2-7; in the semi-attached OCCM only its WHD is resolved
As for B2, in the assay with Orc1, the binding result is “binds”.

B3: Orc2 (natural protein, S. cerevisiae)
chain: MLNGEDFVEHNDILSSPAKSRNVTPKRVDPHGERQLRRIHSSKKNLLERISLVGNERKNTSPDPALKPKTPSKAPRKRGRPRKIQEELTDRIKKDEKDTISSKKKRKLDKDTSGNVNEESKTSNNKQVMEKTGIKEKREREKIQVATTTYEDNVTPQTDDNFVSNSPEPPEPATPSKKSLTTNHDFTSPLKQIIMNNLKEYKDSTSPGKLTLSRNFTPTPVPKNKKLYQTSETKSASSFLDTFEGYFDQRKIVRTNAKSRHTMSMAPDVTREEFSLVSNFFNENFQKRPRQKLFEIQKKMFPQYWFELTQGFSLLFYGVGSKRNFLEEFAIDYLSPKIAYSQLAYENELQQNKPVNSIPCLILNGYNPSCNYRDVFKEITDLLVPAELTRSETKYWGNHVILQIQKMIDFYKNQPLDIKLILVVHNLDGPSIRKNTFQTMLSFLSVIRQIAIVASTDHIYAPLLWDNMKAQNYNFVFHDISNFEPSTVESTFQDVMKMGKSDTSSGAEGAKYVLQSLTVNSKKMYKLLIETQMQNMGNLSANTGPKRGTQRTGVELKLFNHLCAADFIASNEIALRSMLREFIEHKMANITKNNSGMEIIWVPYTYAELEKLLKTVLNTL
notes: Orc2, subunit of the S. cerevisiae origin recognition complex; Stood in the assay as a subunit of ORC
With B3, in the assay with Mcm3, the binding result is listed as “binds”.
